Experimental data taken from the supplement of paper PMC7125110.
± gives the standard error. For some of these results: Fewer inactive variants are shown than the library holds.

B1: glmS ribozyme (parent)
chain: AUAAAAGCGCCAGAACUACAGAAAUGUAGUUGACGAGGAGGAGGUUUAUCGAAUUUUCGGCGGAUGCCUCCAAA

How the values were obtained:
Conditions in all cases: with glucosamine-6-phosphate
glucosamine-6-phosphate [1] = variants of: B1; assay: kcat; higher = faster cleavage; RNA array
How it was run: (§1)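 Barcoded glmS ribozyme variants on sequenced MiSeq chips were transcribed in situ by E. coli RNA polymerase and tracked through a hybridised Cy3 probe at 37 °C. Glucosamine-6-phosphate (40 μM to 10 mM) in HEPES/KCl/Mg(OAc)2 buffer was flowed in, and tiles were imaged over ~14 h. Signals were normalised to baseline and to non-cleaving reference variants; per-tile medians were fit to one- or two-exponential decays to give kobs. kcat and KM came from weighted Michaelis–Menten fits across concentrations.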

glucosamine-6-phosphate [2] = variants of: B1; assay: self-cleavage kobs at 40 uM GlcN6P; higher = faster cleavage; RNA array
How it was run: as §1

glucosamine-6-phosphate [3] = variants of: B1; assay: self-cleavage kobs at 160 uM GlcN6P; higher = faster cleavage; RNA array
How it was run: as §1

glucosamine-6-phosphate [4] = variants of: B1; assay: self-cleavage kobs at 2500 uM GlcN6P; higher = faster cleavage; RNA array
How it was run: as §1

glucosamine-6-phosphate [5] = variants of: B1; assay: self-cleavage kobs at 10000 uM GlcN6P; higher = faster cleavage; RNA array
How it was run: as §1

glucosamine-6-phosphate [6] = variants of: B1; assay: KM; higher = weaker cofactor use; RNA array
How it was run: as §1

glucosamine-6-phosphate [7] = variants of: B1; assay: self-cleavage kobs at 640 uM GlcN6P; higher = faster cleavage; RNA array
How it was run: as §1

| Variant | kcat (glucosamine-6-phosphate [1]) [s⁻¹] | self-cleavage kobs at 40 uM GlcN6P (glucosamine-6-phosphate [2]) [s⁻¹] | self-cleavage kobs at 160 uM GlcN6P (glucosamine-6-phosphate [3]) [s⁻¹] | self-cleavage kobs at 2500 uM GlcN6P (glucosamine-6-phosphate [4]) [s⁻¹] | self-cleavage kobs at 10000 uM GlcN6P (glucosamine-6-phosphate [5]) [s⁻¹] | KM (glucosamine-6-phosphate [6]) [µM] | self-cleavage kobs at 640 uM GlcN6P (glucosamine-6-phosphate [7]) [s⁻¹] |
| --- | --- | --- | --- | --- | --- | --- | --- |
| G13C C34U G35U | < 1e-05 | < 1e-05 | < 1e-05 | < 1e-05 | < 1e-05 |  |  |
| A14G U47C | 0.00925 ± 0.0028 | 0.000316 ± 5.1e-05 | 0.00182 ± 0.00041 | 0.0109 ± 0.0027 | 0.00833 ± 0.0014 | 1160 ± 520 | 0.00236 ± 0.00055 |
| A15C C68U | 0.00105 ± 0.00025 |  | 6.98e-05 ± 8.8e-06 | 0.000847 ± 0.00011 | 0.000796 ± 8.8e-05 | 2390 ± 860 | 0.000191 ± 2.7e-05 |
| G13U A42G | 0.00137 ± 0.00022 | 2.35e-05 ± 1.1e-05 | 0.000152 ± 3.8e-05 | 0.00082 ± 0.00017 | 0.00117 ± 0.00027 | 1680 ± 460 |  |
| A12U G41A | 0.00189 ± 0.00051 | 0.000183 ± 2e-05 | 0.00038 ± 0.00011 | 0.00213 ± 0.0004 | 0.00216 ± 0.00028 | 456 ± 210 | 0.00073 ± 0.00014 |
| A15C G40A | 0.000642 ± 0.00018 | 2.42e-05 ± 9.8e-06 | 8.81e-05 ± 2.4e-05 | 0.000365 ± 7.3e-05 | 0.000584 ± 0.00012 | 1860 ± 840 | 0.000149 ± 2e-05 |
| A15C G40C | 0.000353 ± 6.6e-05 |  | 5.62e-05 ± 7.5e-06 | 0.000234 ± 2.4e-05 | 0.000343 ± 3.9e-05 | 1230 ± 420 | 0.000109 ± 9.3e-06 |
| A15C U54A | 0.00654 ± 0.0017 | 0.000164 ± 2.4e-05 | 0.000559 ± 0.00011 | 0.00329 ± 0.00066 | 0.00638 ± 0.00097 | 1930 ± 730 | 0.0012 ± 0.00025 |
| A15C U30C | 0.000215 ± 7.8e-05 |  |  | 8.21e-05 ± 1.5e-05 | 0.000177 ± 2.6e-05 |  | 8.27e-05 ± 2.3e-05 |
| A12U G13A | 0.0015 ± 0.00056 |  |  | 0.000208 ± 3.6e-05 | 0.000715 ± 9.5e-05 |  | 8.57e-05 ± 1.1e-05 |
| A14C U30A | 0.00104 ± 0.00011 |  | 6.84e-05 ± 2e-05 | 0.000568 ± 0.00017 | 0.000813 ± 0.00013 | 2710 ± 480 | 0.000182 ± 3.9e-05 |
| A14U G29U | 0.000435 ± 4.6e-05 | 2.02e-05 ± 9.5e-06 | 3.57e-05 ± 7.2e-06 | 0.000222 ± 2e-05 | 0.000381 ± 3.2e-05 | 2040 ± 400 | 0.000104 ± 9.7e-06 |
| G13U G41A | 5.17e-05 ± 3.4e-06 |  |  | 2.17e-05 ± 8.2e-06 | 3.81e-05 ± 9.2e-06 | 3540 ± 600 |  |
| G13A C16U | 0.000763 ± 9.4e-05 |  | 4.29e-05 ± 1.2e-05 | 0.000459 ± 5.5e-05 | 0.000577 ± 7.9e-05 | 2220 ± 460 | 0.000172 ± 2.2e-05 |
| G13A C16G | 0.000217 ± 1.4e-05 |  |  | 0.000131 ± 2.4e-05 | 0.000178 ± 2.5e-05 | 1970 ± 290 | 5.02e-05 ± 1.2e-05 |
| G13U C71G | 5.14e-05 ± 2.7e-06 |  |  | 5.35e-05 ± 1e-05 | 5.01e-05 ± 5.6e-06 | 155 ± 74 | 3.7e-05 ± 9e-06 |
| A12U G60U | 1.13e-05 ± 1.6e-06 | < 1e-05 | < 1e-05 |  | < 1e-05 |  |  |
| A12U G60A | 8.33e-05 ± 8e-06 |  |  | 4.12e-05 ± 1e-05 | 7.02e-05 ± 8.4e-06 | 2040 ± 700 | 2.88e-05 ± 1.4e-05 |
| A12U A42G | 0.0985 ± 0.045 | 0.00296 ± 0.00037 | 0.00676 ± 0.0033 |  | 0.116 ± 0.044 |  | 0.0249 ± 0.006 |
| G13C G32C | 0.000728 ± 0.00016 |  | 4.58e-05 ± 1.6e-05 | 0.000408 ± 7e-05 | 0.000534 ± 7.8e-05 | 3050 ± 1200 | 0.000109 ± 2.2e-05 |
| A14G A64U | 0.000311 ± 2.2e-05 |  |  | 0.000199 ± 2.7e-05 | 0.000257 ± 2.3e-05 | 1830 ± 300 | 7.9e-05 ± 1e-05 |
| A12U U31C U47G | 0.00222 ± 0.00076 | 4.15e-05 ± 1.7e-05 | 8.69e-05 ± 1.9e-05 | 0.000645 ± 0.00015 | 0.00156 ± 0.00026 | 5110 ± 2400 | 0.000212 ± 4.5e-05 |
| A12U G40U U45G | 0.00175 ± 0.00051 | 0.000216 ± 3.5e-05 |  | 0.00239 ± 0.0011 | 0.00207 ± 0.00036 |  | 0.000743 ± 0.00024 |
| G13U A36C G38U A39C | 1.03e-05 ± 4.7e-06 |  |  |  |  |  |  |
| G13U | 0.00254 ± 0.00046 | 3.52e-05 ± 1.3e-06 | 0.000104 ± 3.4e-06 | 0.00118 ± 5e-05 | 0.00186 ± 5.8e-05 | 3670 ± 840 | 0.000355 ± 7.3e-06 |
| G13C | 0.000191 ± 5.2e-06 |  |  | 6.98e-05 ± 1.4e-06 | 0.000135 ± 1.8e-06 | 4220 ± 250 | 2.7e-05 ± 1.3e-06 |
| G13A | 0.00142 ± 0.00018 | 1.56e-05 ± 1.7e-06 | 4.65e-05 ± 1.7e-06 | 0.00057 ± 3.3e-05 | 0.000945 ± 3.6e-05 | 4830 ± 750 | 0.000162 ± 3.8e-06 |
| G13A A36C | < 1e-05 |  |  |  | < 1e-05 |  |  |
